Assays:
recombinant human TfR-1 = molecular target: T1, recombinant human TfR-1 (human, UniProt P02786 89-760); experiment: phage ELISA
T1 construct: Recombinant protein coated at 1 ug/ml in the phage ELISA; also called hTfR1; human transferrin receptor-1

recombinant mouse TfR-1 = molecular target: T2, recombinant mouse TfR-1 (mouse, UniProt Q62351 89-763); experiment: phage ELISA
T2 construct: Recombinant protein coated at 1 ug/ml in the phage ELISA; also called mTfR1; mouse transferrin receptor-1
T2 sequence (Q62351 89-763 limits assumed): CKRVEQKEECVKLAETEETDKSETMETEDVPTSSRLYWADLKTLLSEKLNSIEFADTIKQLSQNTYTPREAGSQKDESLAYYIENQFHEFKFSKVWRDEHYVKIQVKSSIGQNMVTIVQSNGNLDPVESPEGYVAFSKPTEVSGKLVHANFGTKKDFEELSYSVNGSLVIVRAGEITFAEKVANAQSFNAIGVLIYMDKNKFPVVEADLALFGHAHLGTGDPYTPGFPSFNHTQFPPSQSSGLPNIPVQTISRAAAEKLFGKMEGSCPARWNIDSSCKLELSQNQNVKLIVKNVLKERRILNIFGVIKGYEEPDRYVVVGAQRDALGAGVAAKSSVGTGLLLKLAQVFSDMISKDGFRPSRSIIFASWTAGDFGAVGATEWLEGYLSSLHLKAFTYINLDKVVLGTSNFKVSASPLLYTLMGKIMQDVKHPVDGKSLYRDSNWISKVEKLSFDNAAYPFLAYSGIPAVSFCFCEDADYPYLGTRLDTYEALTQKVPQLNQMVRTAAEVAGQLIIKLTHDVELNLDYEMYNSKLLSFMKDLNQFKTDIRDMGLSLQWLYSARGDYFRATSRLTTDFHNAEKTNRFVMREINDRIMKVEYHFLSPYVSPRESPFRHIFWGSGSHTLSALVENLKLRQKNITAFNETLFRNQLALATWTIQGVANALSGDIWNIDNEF

T1 sequence (P02786 89-760 limits assumed): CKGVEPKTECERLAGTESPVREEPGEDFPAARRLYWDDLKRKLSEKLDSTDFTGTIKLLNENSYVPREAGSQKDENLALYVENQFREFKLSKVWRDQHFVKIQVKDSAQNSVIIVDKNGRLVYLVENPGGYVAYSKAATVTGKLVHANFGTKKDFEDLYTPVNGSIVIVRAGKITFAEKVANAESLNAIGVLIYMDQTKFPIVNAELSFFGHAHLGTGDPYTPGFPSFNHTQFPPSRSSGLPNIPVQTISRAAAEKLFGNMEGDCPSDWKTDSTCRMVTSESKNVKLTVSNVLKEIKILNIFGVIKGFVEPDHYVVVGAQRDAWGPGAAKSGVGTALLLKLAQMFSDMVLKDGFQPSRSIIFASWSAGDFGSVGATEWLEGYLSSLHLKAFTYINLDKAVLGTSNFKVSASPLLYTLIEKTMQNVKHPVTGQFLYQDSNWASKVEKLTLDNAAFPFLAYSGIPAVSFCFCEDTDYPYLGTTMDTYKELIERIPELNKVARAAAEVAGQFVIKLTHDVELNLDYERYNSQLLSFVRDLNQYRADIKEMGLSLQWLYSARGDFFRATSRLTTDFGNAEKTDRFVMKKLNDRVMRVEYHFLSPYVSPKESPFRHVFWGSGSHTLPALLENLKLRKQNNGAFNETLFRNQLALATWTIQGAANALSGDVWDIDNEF

B1: Clone 8.129 (VNAR)
VNAR: ARVDQTPQTITKETGESLTINCVLRDSNCALPSTYWYRKKSGSTNEESISKGGRYVETVNSGSKSFSLRINDLTVEDSGTYRCKVIAQLSSILRGCNQPKHDVYGDGTAVTVNA
notes: VNAR on phage; Clone 8 framework
Q: How did the A450 (recombinant human TfR-1) turn out when B1 was run?
A: Its A450 is 0.047 A450.

Q: And the A450 (recombinant mouse TfR-1)?
A: The A450 was 0.047 A450.

B2: Clone 8.141 (VNAR)
VNAR: ARVDQTPQTITKETGESLTINCVLRDSNCALPSTYWYRKKSGSTNEESISKGGRYVETVNSGSKSFSLRINDLTVEDSGTYRCKVIAKASSILRGCNYRKHDVYGDGTAVTVNA
notes: as for B1
Q: With B2 as the binder, how does the A450 (recombinant human TfR-1) read?
A: The A450 was 0.051 A450.

Q: And the A450 (recombinant mouse TfR-1)?
A: Its A450 is 0.045 A450.

B3: Clone 8.133 (VNAR)
VNAR: ARVDQTPQTITKETGESLTINCVLRDSNCALPSTYWYRKKSGSTNEESISKGGRYVETVNSGSKSFSLRINDLTVEDSGTYRCKVIAQLSSRELGCNYRKHDVYGDGTAVTVNA
notes: VNAR on phage; Clone 8 framework; same CDR3 as 8.104
Q: With B3 as the binder, how does the A450 (recombinant human TfR-1) read?
A: The A450 was 0.047 A450.

Q: And the A450 (recombinant mouse TfR-1)?
A: Its A450 is 0.047 A450.

B4: Clone 8.142 (VNAR)
VNAR: ARVDQTPQTITKETGESLTINCVLRDSNCALPSTYWYRKKSGSTNEESISKGGRYVETVNSGSKSFSLRINDLTVEDSGTYRCKVIAQLHANLRGCNYRKHDVYGDGTAVTVNA
notes: as for B1
Q: B4 was tested. Which A450 (recombinant human TfR-1) did it give?
A: The A450 was 0.052 A450.

Q: And the A450 (recombinant mouse TfR-1)?
A: Its A450 is 0.045 A450.

B5: Clone 8.140 (VNAR)
VNAR: ARVDQTPQTITKETGESLTINCVLRDSNCALPSTYWYRKKSGSTNEESISKGGRYVETVNSGSKSFSLRINDLTVEDSGTYRCKVIAITLSILRGCNYRKHDVYGDGTAVTVNA
notes: as for B1
Q: Which A450 (recombinant human TfR-1) does the source give for B5 here?
A: Its A450 is 0.053 A450.

Q: And the A450 (recombinant mouse TfR-1)?
A: The A450 was 0.045 A450.

B6: Clone 8.132 (VNAR)
VNAR: ARVDQTPQTITKETGESLTINCVLRDSNCALPSTYWYRKKSGSTNEESISKGGRYVETVNSGSKSFSLRINDLTVEDSGTYRCKVIAQLSSILRGCNYMHPDVYGDGTAVTVNA
notes: as for B1
Q: Which results are given for B6?
A: A450 (recombinant human TfR-1): 0.053 A450; A450 (recombinant mouse TfR-1): 0.047 A450

B7: Clone 8.131 (VNAR)
VNAR: ARVDQTPQTITKETGESLTINCVLRDSNCALPSTYWYRKKSGSTNEESISKGGRYVETVNSGSKSFSLRINDLTVEDSGTYRCKVIAQLSSILRGCNYLDLDVYGDGTAVTVNA
notes: as for B1
Q: What does the source list for B7?
A: A450 (recombinant human TfR-1): 0.066 A450; A450 (recombinant mouse TfR-1): 0.047 A450

B8: Clone 8.135 (VNAR)
VNAR: ARVDQTPQTITKETGESLTINCVLRDSNCALPSTYWYRKKSGSTNEESISKGGRYVETVNSGSKSFSLRINDLTVEDSGTYRCKVIAQLFPPLRGCNYRKHDVYGDGTAVTVNA
notes: as for B1
Q: Which A450 (recombinant human TfR-1) does the source give for B8 here?
A: Its A450 is 0.058 A450.

Q: And the A450 (recombinant mouse TfR-1)?
A: Its A450 is 0.046 A450.

B9: Clone 8.134 (VNAR)
VNAR: ARVDQTPQTITKETGESLTINCVLRDSNCALPSTYWYRKKSGSTNEESISKGGRYVETVNSGSKSFSLRINDLTVEDSGTYRCKVDLTLSSILRGCNYRKHDVYGDGTAVTVNA
notes: as for B1
Q: With B9 as the binder, how does the A450 (recombinant human TfR-1) read?
A: Its A450 is 0.053 A450.

Q: And the A450 (recombinant mouse TfR-1)?
A: The A450 was 0.046 A450.

B10: Clone 8.130 (VNAR)
VNAR: ARVDQTPQTITKETGESLTINCVLRDSNCALPSTYWYRKKSGSTNEESISKGGRYVETVNSGSKSFSLRINDLTVEDSGTYRCKVIAQLSSILRGCNYAHLDVYGDGTAVTVNA
notes: as for B1
Q: What does the source list for B10?
A: A450 (recombinant human TfR-1): 0.049 A450; A450 (recombinant mouse TfR-1): 0.047 A450

B11: Clone 8.138 (VNAR)
VNAR: ARVDQTPQTITKETGESLTINCVLRDSNCALPSTYWYRKKSGSTNEESISKGGRYVETVNSGSKSFSLRINDLTVEDSGTYRCKVIAQLSSLSFGCNYRKHDVYGDGTAVTVNA
notes: as for B1
Q: Which results are given for B11?
A: A450 (recombinant human TfR-1): 0.047 A450; A450 (recombinant mouse TfR-1): 0.046 A450

B12: Clone 8.139 (VNAR)
VNAR: ARVDQTPQTITKETGESLTINCVLRDSNCALPSTYWYRKKSGSTNEESISKGGRYVETVNSGSKSFSLRINDLTVEDSGTYRCKVDAHLSSILRGCNYRKHDVYGDGTAVTVNA
notes: as for B1
Q: How did the A450 (recombinant human TfR-1) turn out when B12 was run?
A: The A450 was 0.05 A450.

Q: And the A450 (recombinant mouse TfR-1)?
A: The A450 was 0.045 A450.

B13: Clone 8.136 (VNAR)
VNAR: ARVDQTPQTITKETGESLTINCVLRDSNCALPSTYWYRKKSGSTNEESISKGGRYVETVNSGSKSFSLRINDLTVEDSGTYRCKVIAQLSSAGIGCNYRKHDVYGDGTAVTVNA
notes: as for B1
Q: B13 was tested. Which A450 (recombinant human TfR-1) did it give?
A: The A450 was 0.055 A450.

Q: And the A450 (recombinant mouse TfR-1)?
A: The A450 was 0.046 A450.

Reference: US20210395381A1 (OSSIANIX, published 2021)
